Patent US20210155689A1 (SHANGHAI PHARMAEXPLORER, published 2021)
Numbering of substitutions follows the chain as printed.

T1: human LAG-3 protein with hFc tag (hLAG-3-hFc protein) (human, UniProt P18627 23-450)
T1 construct: also called immunogen 1; LAG-3 extracellular domain protein; not shown: human IgG Fc fragment (hFc) of the pCpC vector
T1 sequence: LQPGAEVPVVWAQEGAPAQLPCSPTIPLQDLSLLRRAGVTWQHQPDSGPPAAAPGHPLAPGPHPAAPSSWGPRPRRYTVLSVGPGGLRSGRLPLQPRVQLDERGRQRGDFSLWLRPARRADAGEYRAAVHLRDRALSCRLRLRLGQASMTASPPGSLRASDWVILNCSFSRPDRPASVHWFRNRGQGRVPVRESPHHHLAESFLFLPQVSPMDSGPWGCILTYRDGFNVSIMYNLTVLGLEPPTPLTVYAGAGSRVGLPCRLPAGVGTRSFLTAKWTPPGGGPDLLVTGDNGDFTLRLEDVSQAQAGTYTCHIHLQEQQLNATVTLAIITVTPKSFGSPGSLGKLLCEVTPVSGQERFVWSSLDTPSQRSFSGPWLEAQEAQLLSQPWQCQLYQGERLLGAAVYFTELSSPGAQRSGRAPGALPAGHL

T2: mouse LAG-3 protein with hFc tag (mLAG-3-hFc protein) (mouse; human, UniProt Q61790 24-442)
T2 construct: Made in HEK293 cells; also called mouse LAG-3 extracellular domain protein; not shown: human IgG Fc fragment (hFc) of the pCpC vector
T2 sequence: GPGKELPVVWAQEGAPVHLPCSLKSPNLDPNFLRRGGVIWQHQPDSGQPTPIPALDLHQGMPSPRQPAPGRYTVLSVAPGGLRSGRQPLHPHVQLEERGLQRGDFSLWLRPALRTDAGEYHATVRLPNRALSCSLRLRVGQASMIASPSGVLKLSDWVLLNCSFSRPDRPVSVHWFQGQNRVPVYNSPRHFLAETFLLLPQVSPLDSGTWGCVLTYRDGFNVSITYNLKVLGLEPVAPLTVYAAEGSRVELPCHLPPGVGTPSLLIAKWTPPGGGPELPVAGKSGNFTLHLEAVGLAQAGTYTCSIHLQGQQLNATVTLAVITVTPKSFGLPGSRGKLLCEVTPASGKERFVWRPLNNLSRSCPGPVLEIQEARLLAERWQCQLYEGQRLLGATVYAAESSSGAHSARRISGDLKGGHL

T3: LAG-3-hFc protein (human LAG-3 extracellular region with hFc tag) (human, UniProt P18627 23-450)
T3 construct: also called hLAG-3-hFc; LAG-3 protein; not shown: human IgG Fc fragment (hFc) of the pCpC vector
T3 sequence: T1 sequence

B1: 556F6B8 (LAG-3 mouse-human chimeric antibody) (antibody, V domains shown)
VH: RVQLKQSGPGLVQPSQSLSITCTVSGFSLIKYGVHWVRQSPGEGLEWLGVIWRGGITDYNAAFMSRLSITKDNSKSQVFFKMNSLQADDTAIYYCAKWDGPLAMDYWGQGTSVTVSS
VL: DIVMTQSHKFLSTSVGDRVSITCKASQDVGTTVAWYQQKPGQSPKLLIYWASTRHTGVPDRFTGSGSGTDFTLTISNVQSEDLADYFCQQYSSYPYTFGGGTKLEIK
notes: also called 556F8B8
B2: 105F1E10 (LAG-3 mouse-human chimeric antibody) (antibody, V domains shown)
VH: EVQLQQSGPELVKPGASVKMSCRASGYTFTDFKMHWMKQSHGKSLEWIGYIAPNNGGTAYNQKFRGKATLTVNESSNTAYMELRSLTSEDSAVYYCVDWDDVDYWGQGTTLTVSS
VL: DIKMTQSPSSMYASLGERVTITCKASQDINSYLSWFQQKSGKSPKTLIYRANRLVDGVPSRFSGSGSGQDYSLTISSLEYEDMGIYYCLQYVEFPLTFGAGTKLELK
B3: 405B8H3 (LAG-3 mouse-human chimeric antibody) (antibody, V domains shown)
VH: QVQLQQSGAELVRPGASVTLSCKASGYTFTDYEMHWVKQTPVHGLEWIGATDPETGNSAYNQKFKGKAIMTADKSSSTAYMELRSLTSEDSAVYYCISTGWNDWGQGTSLTVSS
VL: B2 VL with S40P, N52D, V55L, E81G, V92D, L96Y, A100G, L106I
notes: also called mouse-human chimeric antibody 405B8H3
B4: 409D4E10 (LAG-3 mouse-human chimeric antibody) (antibody, V domains shown)
VH: B3 VH with Y27N, G56D, S58T, M70L, A72T, S98T, T99S
VL: B2 VL with S40P, V55L, V92N, L96Y, A100G, L106I
B5: 409B11E12 (LAG-3 mouse-human chimeric antibody) (antibody, V domains shown)
VH: B3 VH with P41T, G56S, N57Y, M70L, S98A
VL: B2 VL with I2L, S40P, V55L, V92D, L96Y, A100G, L106I
B6: 556F6B8 mouse-human chimeric antibody (antibody, V domains shown)
VH: B1 VH
VL: B1 VL
notes: also called mAb123-556F6B8; 556F8B8
B7: 105F1E10 mouse-human chimeric antibody (antibody, V domains shown)
VH: B2 VH
VL: B2 VL
notes: also called mAb009-105F1E10
B8: 405B8H3 mouse-human chimeric antibody (antibody, V domains shown)
VH: B3 VH
VL: B2 VL with S40P, N52D, V55L, E81G, V92D, L96Y, A100G, L106I
notes: also called mAb103-405B8H3
B9: 409D4E10 mouse-human chimeric antibody (antibody, V domains shown)
VH: B3 VH with Y27N, G56D, S58T, M70L, A72T, S98T, T99S
VL: B2 VL with S40P, V55L, V92N, L96Y, A100G, L106I
notes: also called mAb112-409D4E10
B10: 409B11E12 mouse-human chimeric antibody (antibody, V domains shown)
VH: B3 VH with P41T, G56S, N57Y, M70L, S98A
VL: B2 VL with I2L, S40P, V55L, V92D, L96Y, A100G, L106I
notes: also called mAb104-409B11E12

Each binder was assayed against T1, human LAG-3 protein with hFc tag … (assay: ELISA, hLAG-3-hFc coated; 0.0001 nM).
Description: (§1) The plate was sealed with plastic film and incubated overnight at 4° C. The plate was washed 2 times with the plate washing solution (PBS+0.01% Tween20) on the next day, and added with the blocking solution (PBS+0.01% Tween20+1% BSA) and blocked at room temperature for 1-2 hours. The blocking solution was poured out, and the plate was added with 50-100 μl of the antibody sample to be tested to each well, incubated at 37° C. for 1-2 hours, and washed 2-3 times with a plate washing solution (PBS+0.01% Tween20). HRP (horseradish peroxidase) labeled secondary antibody was added, and the plate was incubated at 37° C. for 1-2 hours, and washed 2-3 times with a plate washing solution (PBS+0.01% Tween20). 100 μl of TMB substrate was added to each well. After incubated at room temperature for 15-30 minutes, the plate was added with 100 μl of stop solution (1.0N HCl) to each well.

B1 and B2 are the same in OD450: 0.13 OD450 for the first, 0.13 OD450 for the second.

Compared with B3, B4 is higher in OD450: 0.11 OD450 for the first, 0.13 OD450 for the second.

Binder B5 has an OD450 of 0.12 OD450.

What follows are binders tested against T2, mouse LAG-3 protein with hFc tag … (assay: ELISA, mLAG-3-hFc coated; 0.6667 nM).
Description: as §1

First: B1
Second: B2
The OD450 of the first is higher: 0.15 OD450 for the first, 0.09 OD450 for the second.

B3 and B4 are the same in OD450: 0.11 OD450 for the first, 0.11 OD450 for the second.

With B5 the OD450 was 0.1 OD450.

The binders below were run against T3, LAG-3-hFc protein (human LAG-3 …) (assay: FACS, inhibition of LAG-3-hFc binding to MHC II on Raji cells, antibody 2.469 nM).
Description: The FACS reaction plate incubating the Raji cells was centrifuged to discard the supernatant. The above mixture was added as 100 μl per well to Raji cells and incubated on ice for 1-2 hours. The plate was washed twice with blocking solution (PBS, 2% fetal bovine serum) by centrifugation, added with 100 microliters of fluorescent (Alexa 488)-labeled secondary antibodies per well, and incubated on ice for 1.0 hours. The plate was washed 2-3 times by centrifugation with blocking solution (PBS, 2% fetal bovine serum), added with 100 microliters of PBS per well to suspend cells, and detected using FACS (FACS Calibur, BD) and the results were analyzed. Wherein, the IgG control was murine IgG, and the data in the table is the inhibition rate (%).

Compared with B6, B7 is lower in “Inhibition rate (%)” value: 41.5% for the first, 8.2% for the second.

Compared with B8, B9 is higher in “Inhibition rate (%)” value: 55.8% for the first, 56.7% for the second.

In the case of B10, the “Inhibition rate (%)” value is reported as 59.2%.
